For the test, the target named is 14-3-3ζ (UniProt P63104). Nature of the test: GST pull-down from co-transfected cells. The conditions noted are these: reference: wild type.

Turning to “Notch4 (Notch4-ICD; Notch4-ΔhN4) ICD (from UniProt Q99466) S1865A”, the “binding against the reference” value (sites S1865) is “weaker”. Take “Notch4 (Notch4-ICD; Notch4-ΔhN4) ICD (from UniProt Q99466) S1917A”: under “sites S1917”, the “binding against the reference” value is given as “weaker”.

Regarding “Notch4 (Notch4-ICD; Notch4-ΔhN4) ICD (from UniProt Q99466) S1847A”, the “binding against the reference” value (sites S1847) is on record as “weaker”. With “Notch4 (Notch4-ICD; Notch4-ΔhN4) ICD (from UniProt Q99466) 4XA (S1495/1847/1865/1917A)”, where the note is “sites S1495,S1847,S1865,S1917”, the “binding against the reference” value is listed as “lost”. Consider “Notch4 (Notch4-ICD; Notch4-ΔhN4) ICD (from UniProt Q99466) S1495A”, for which, under “sites S1495”, the “binding against the reference” value was “weaker”.

For the origin of these results see PMC4350099.
